Format in all cases: binding
The target of one test is T1, human recombinant LANCL1 (Homo sapiens, UniProt O43813).
T1 construct: purchased ABCAM ab181923; host or cells: E. coli
The test can be described thus: In-gel fluorescence: photolabelling of recombinant LANCL1 with PAL probes, with or without excess competitor. The procedure: The in-gel fluorescence protocol can be briefly described as follows:
1. LANCL1 Labelling, Assay on 96 Well Plate, Volume of the Reaction 40 μl in PBS
3 μg/well of human recombinant LANCL1 (ABCAM catalog no. ab181923, 1 mg/ml; expressed in E. Coli and incorporating an N-terminal 23 amino acid hexaHis tag; UniProtKB/Swiss-Prot Accession no: O43813);
• Vehicle DMSO • ±LAT8881 (a cyclic peptide fragment of human growth hormone; SEQ ID NO:1) • SEQ ID NO:1) as competitor @ 25, 50, 100 or 200 μM, pre-incubation 10 min, 4 μl of a stock solution 10-fold concentrated • ±LAT9991-PAL, LAT7771-PAL or LAT9993-PAL probes @ 1 μM, incubation 30 min at room temperature on a plate agitator (protected from light), 4 μl of a stock solution @10 μM
• Irradiation @ 365 nm 20 min (4° C., on a support containing ice) Transfer 40 μl in a clean Eppendorf tube
• Reduction: DTT 10 mM, 30 min @ 56° C. • Alkylation: Iodoacetamide 30 mM, 45 min @ RT Click-iT AzideTamra of 60 μL samples
• Acetone Precipitation −20° C. ON • Dry pellet resuspended in 30 μL 1% SDS in 50 mM Tris-HCl pH 7.5 • Photolabeled LANCL1 was tagged with tetramethylrhodamine (TAMRA) azide @100 μM TAMRA azide by copper click chemistry using the Click-iT Protein Reaction Buffer Kit (ThermoFisher Scientific) during 30 minutes • Precipitation using the chloroform-methanol method, pellet was air-dried for 10 min at room temperature, resuspended in 30 μL SDS loading buffer (Bio Rad's XT Sample Buffer containing 2.5% v/v 2-mercaptoethanol) and heated (60° C., 30 min)
(§1) • SDS-PAGE (4-15% Criterion™ TGX Stain-Free™ Protein Gel, Bio Rad) • Analyzed by in-gel fluorescence scanning using a ChemiDoc™ MP Imaging System (Bio Rad) with a green LED light as an excitation source and a BP600/20 nm emission filter

The next test has as its target T2, human recombinant LANCL3 (Homo sapiens, UniProt Q6ZV70).
T2 construct: human recombinant LANCL3 (amino acid residues 1-420); 10xHis (N); Myc (C); purchased ABCAM ab163277; host or cells: E. coli
Description: In-gel fluorescence: photolabelling of recombinant LANCL3 with PAL probe, with or without excess LAT8881. The protocol: An in-gel fluorescence protocol was followed to determine whether the cyclic peptides bound to LANCL2 and LANCL3. Briefly:
1. LANCL2 and LANCL3 Labelling, Assay on 96 Well Plate, Volume of the Reaction 40 μl in PBS
• […] of human recombinant LANCL3 (amino acid residues 1-420; ABCAM catalog no. ab163277, ˜0.07 mg/ml; expressed in E. Coli and incorporating an N-terminal 10×His tag and a C-terminal Mvc tag; UniProt Accession no: Q6ZV70);
• Vehicle DMSO • ±LAT8881 (a cyclic peptide fragment of human growth hormone; SEQ ID NO:1) • SEQ ID NO:1 as competitor @ 50, 100 or 200 μM, pre-incubation 10 min, […], incubation 30 min at room temperature on a plate agitator (protected from light), 4 μl of a stock solution @10 μM
• Irradiation @ 365 nm 20 min (4° C., on a support containing ice) • Transfer 40 μl in a clean Eppendorf tube
• Reduction: DTT 10 mM, 30 min @ 56° C. • Alkylation: Iodoacétamide 30 mM, 45 min @ RT Click-iT AzideTamra of 60 μL samples
• Acetone Precipitation −20° C. ON • Dry pellet resuspended in 30 μL 1% SDS in 50 mM Tris-HCl pH 7.5 • Photolabeled LANCL1 was tagged with tetramethylrhodamine (TAMRA) azide @100 μM TAMRA azide by copper click chemistry using the Click-iT Protein Reaction Buffer Kit (ThermoFisher Scientific) for 30 minutes • Precipitation using the chloroform-methanol method, pellet was air-dried for 10 min at room temperature, resuspended in 30 μL SDS loading buffer (Bio Rad XT Sample Buffer containing 2.5% v/v 2-mercaptoethanol) and heated (60° C., 30 min)
as §1

The target in a further test is LANCL1 (Rattus norvegicus, UniProt Q9QX69). Description: Mass spectrometry of excised gel bands from PAL cross-linked homogenates (PALMS). Also on record: from tissue; host or cells: nerve tissue homogenate of neuropathic animals. From the text:
Having identified at least three molecular weight bands as representative of the potential targets, the 12-15 kD, 37 kD and 50 kD regions of the gel were excised, subjected to limited proteolysis and analysed by mass spectrometry to identify peptides from proteins that were differentially enriched. The detection of at least two different peptides from a protein that is enriched in the LAT9991-PAL cross-linked samples when compared to (i) the un-crosslinked samples and (ii) LAT9991-PAL in the presence of excess LAT8881 (SEQ ID NO:1; YLRIVQCRSVEGSCGF) was considered a positive signature. LAT9991-PAL, LAT9993-PAL and LAT7771-PAL were also used. LAT9993 (SEQ ID NO:41) has the amino acid sequence SCRSRPVESSC.

Data on two substances can be found in US20230064978A1, “CYCLIC PEPTIDE RECEPTOR LANTHIONINE SYNTHETASE C-LIKE PROTEIN (LANCL) AND USES THEREOF” (LATERAL IP PTY LTD, priority 2019, published 2023).

“Also recorded” adds a separate entry of the source. Bridges are numbered along the chain shown (N, C = ends). Where no end group is shown, it is not given here.

Sequence of LANCL1 (Q9QX69 whole entry): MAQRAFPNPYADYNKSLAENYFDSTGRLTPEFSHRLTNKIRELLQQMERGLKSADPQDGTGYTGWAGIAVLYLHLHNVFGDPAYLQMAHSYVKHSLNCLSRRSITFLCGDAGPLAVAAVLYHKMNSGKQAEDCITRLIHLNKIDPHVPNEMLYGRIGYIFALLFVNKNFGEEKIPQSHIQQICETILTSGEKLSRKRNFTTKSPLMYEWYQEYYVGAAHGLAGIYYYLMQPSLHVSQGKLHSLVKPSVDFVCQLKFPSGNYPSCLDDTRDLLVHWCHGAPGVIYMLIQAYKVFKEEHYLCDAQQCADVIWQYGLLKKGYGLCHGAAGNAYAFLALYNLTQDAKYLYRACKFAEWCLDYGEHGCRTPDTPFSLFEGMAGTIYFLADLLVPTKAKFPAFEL
T2 sequence (Q6ZV70 whole entry, the tested form may be a part): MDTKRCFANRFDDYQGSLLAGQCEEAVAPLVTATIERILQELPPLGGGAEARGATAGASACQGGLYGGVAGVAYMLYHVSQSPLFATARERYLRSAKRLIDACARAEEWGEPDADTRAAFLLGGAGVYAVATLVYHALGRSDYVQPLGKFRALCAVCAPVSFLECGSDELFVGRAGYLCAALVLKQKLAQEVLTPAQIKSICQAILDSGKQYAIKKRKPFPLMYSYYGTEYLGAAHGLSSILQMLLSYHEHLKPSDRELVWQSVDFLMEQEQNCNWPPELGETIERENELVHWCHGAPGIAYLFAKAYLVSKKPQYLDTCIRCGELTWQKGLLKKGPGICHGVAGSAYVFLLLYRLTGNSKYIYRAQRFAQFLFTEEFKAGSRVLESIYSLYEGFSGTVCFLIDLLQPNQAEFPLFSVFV
T1 sequence (O43813 with tags, fused parts or gaps): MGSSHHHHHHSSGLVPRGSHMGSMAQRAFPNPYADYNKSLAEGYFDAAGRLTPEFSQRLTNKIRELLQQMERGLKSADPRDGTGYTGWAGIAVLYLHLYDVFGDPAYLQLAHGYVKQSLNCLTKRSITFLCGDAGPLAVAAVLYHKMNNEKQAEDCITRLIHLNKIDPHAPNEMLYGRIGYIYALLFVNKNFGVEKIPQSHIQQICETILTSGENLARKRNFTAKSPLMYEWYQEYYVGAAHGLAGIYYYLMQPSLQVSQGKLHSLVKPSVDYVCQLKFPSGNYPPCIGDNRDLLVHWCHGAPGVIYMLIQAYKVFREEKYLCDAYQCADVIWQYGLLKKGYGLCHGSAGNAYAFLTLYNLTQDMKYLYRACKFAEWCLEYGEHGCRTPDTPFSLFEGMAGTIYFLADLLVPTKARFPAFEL

As for “LAT9991-PAL: cyclic peptide of SEQ ID NO:12 (LAT9991) conjugated to the PAL (Photo-Activated Labelling) grouping (CRSVEGSCG; disulfide 1-8 (inferred); also: PAL group on N-terminal Cys-Arg part)”, the “Binding of PAL probe to recombinant LANCL1” value with human recombinant LANCL1 (in-gel fluorescence after UV (365 nm) cross-linking) is reported as “bound to recombinant LANCL1”. In addition, in the test with human recombinant LANCL3 (in-gel fluorescence after UV cross-linking), the “Binding of PAL probe to recombinant LANCL3” value is reported as “binds”. Besides, the “LANCL1 bound / enriched in PAL probe cross-linked samples (mass spectrometry)” value with LANCL1 (vs un-crosslinked samples (CU) and samples with excess LAT8881 (COMP), 37 kDa band) is “met the arbitrary statistical criteria for a “hit”; also recorded: enriched by several fold-changes; also recorded: bound to LANCL1”.
Take “YLRIVQCRSVEGSCGF [LAT8881, a cyclic peptide fragment of human growth hormone]”: the “Inhibition of LAT7771-PAL binding to recombinant LANCL1 by excess competitor” value in the test with human recombinant LANCL1 (probe LAT7771-PAL, excess LAT8881) is “inhibited”. Moreover, the “Inhibition of LAT9991-PAL binding to recombinant LANCL1 by excess competitor” value in the test with human recombinant LANCL1 (probe LAT9991-PAL, excess unlabelled competitor) is “inhibited”. Moreover, the “Inhibition of LAT9993S-PAL binding to recombinant LANCL1 by excess competitor” value in the test with human recombinant LANCL1 (probe LAT9993S-PAL, excess LAT8881) was “inhibited”. The “Inhibition of LAT9991-PAL binding to LANCL3 by excess competitor” value with human recombinant LANCL3 (probe LAT9991-PAL, excess LAT8881) is reported as “inhibited”. Besides, the “Inhibition of LAT9993-PAL binding to recombinant LANCL3 by excess competitor” value with human recombinant LANCL3 (probe LAT9993-PAL (as in FIG. 11 legend), excess LAT8881) was “inhibited”. For the same substance, the “Inhibition of PAL probe binding to LANCL1 from tissue homogenates by excess competitor” value in the test with LANCL1 (probes LAT9991-PAL, LAT9993-PAL, LAT7771-PAL, excess LAT8881) is “inhibited”.
